Data as given in the RNAGym collection of RNA variant scans (doi:10.1093/nar/gkz1192).

B1: CPEB3 Ribozyme (parent)
chain: UAACAGGGGGCCACAGCAGAAGCGUUCACGUCGCAGCCCCUGUCAGAUUCUGGUGAAUCUGCGAAUUCUGCUGUAUAUCUC

Variants of: B1
Experiment: self-cleavage, relative activity (ratio to wild type); higher = more cleavage; in vitro, sequencing
In short: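 Relative activity was defined as the cleaved/total read fraction for a variant divided by the same fraction for the unmutated ribozyme. CPEB3 self-cleaving ribozyme libraries were made by rounds of error-prone PCR, barcoded, and transcribed in vitro with T7 RNA polymerase for 5 hours at 37°C, and cleavage ran through transcription plus a 15 min DNase I step before EDTA. Illumina sequencing of template-switched reverse transcripts gave the reads, and DNA sequencing mapped the barcodes. Averages come from three batches, using variants with at least 5 reads.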

Question: With UAACAGGGGGCCACAGCAGAAGCGUUCACGUCGCAGACCCUGUCGGAUUCUGGUGAAUCUGCGAAUUCUGCUGUAUAUCUC as the variant, how does the self-cleavage read?
Answer: 0.26

Question: For UAACAGGGGGCCACAGCAGAAGCGUUCACGUCGCAGGCCCUGUCAGAUUCUGGUGAAUGUGCGAAUUCUGCUGUAUAUCUC, which self-cleavage is on record?
Answer: 0.13

Question: Which self-cleavage does the source give for UAACAGGGGGCCACAGCAGAAGCGUUCACGUCGCAGACCCUGUCAGAUUCUGGUGAAUCUGCGAAUUCUGCUCUAUAUCUC here?
Answer: 0.38

Question: With UAACAGGGGGCCACAGCAGAAGCGUUCACGUCGCAGGCCCUGUCAGAUUCUGGUGAAUCUGCGUAUUCUGCUGUAUAUCUC as the variant, how does the self-cleavage read?
Answer: 0.22

Question: With UAACAGGGGGCCACAGCAGAAGCGUUCACGUCGCAGGCCCUGUCAGAUUCUGGUGAAUCUGCGGAUUCUGCUGUAUAUCUC as the variant, how does the self-cleavage read?
Answer: 0.54

Question: For UAACAGGGGGCCACAGCAGAAGCGUUCACGUCGCAGGCCCUGUCUGAUUCUGGUGAAUCUGCGAAUUCUGCUGUAUAUCUC, which self-cleavage is on record?
Answer: 0.13

Question: For UAACAGGGGGCCACAGCAGAAGCGUUCACGUCGCAGGCCCUGUCGGAUUCUGGUGAAUCUGCGAAUUCUGCUGUAUAUCUC, which self-cleavage is on record?
Answer: 0.7

Question: For UAACAGGGGGCCACAGCAGAAGCGUUCACGUCGCAGGCCCUGUCAGAUCCUGGUGAAUCUGCGAAUUCUGCUGUAUAUCUC, which self-cleavage is on record?
Answer: 0.38

Question: With UAACAGGGGGCCACAGCAGAAGCGUUCACGUCGCAGGCCCUUUCAGAUUCUGGUGAAUCUGCGAAUUCUGCUGUAUAUCUC as the variant, how does the self-cleavage read?
Answer: 0.29

Question: For UAACAGGGGGCCACAGCAGAAGCGUUCACGUCGCAGACCCUGUCAGAUUCUGGUGAAUCUGCGAAUUUUGCUGUAUAUCUC, which self-cleavage is on record?
Answer: 0.09

Question: With UAACAGGGGGCCACAGCAGAAGCGUUCACGUCGCAGACCCUGUCAGAUUCUGGUGAAUCUGCGAAUUCAGCUGUAUAUCUC as the variant, how does the self-cleavage read?
Answer: 0.12

Question: For UAACAGGGGGCCACAGCAGAAGCGUUCACGUCGCAGGCCCUGUCAGGUUCUGGUGAAUCUGCGAAUUCUGCUGUAUAUCUC, which self-cleavage is on record?
Answer: 0.58

Question: Which self-cleavage does the source give for UAACAGGGGGCCACAGCAGAAGCGUUCACGUCGCAGACCCUGUCAGAUUCUGGUGAAUCUGCGAAUUCUGCUGUGUAUCUC here?
Answer: 0.19

Question: With UAACAGGGGGCCACAGCAGAAGCGUUCACGUCGCAGGCCCUGUCAGAUUCGGGUGAAUCUGCGAAUUCUGCUGUAUAUCUC as the variant, how does the self-cleavage read?
Answer: 0.78

Question: With UAACAGGGGGCCACAGCAGAAGCGUUCACGUCGCAGACCCUGCCAGAUUCUGGUGAAUCUGCGAAUUCUGCUGUAUAUCUC as the variant, how does the self-cleavage read?
Answer: 0.43

Question: With UAACAGGGGGCCACAGCAGAAGCGUUCACGUCGCAGACCCUGACAGAUUCUGGUGAAUCUGCGAAUUCUGCUGUAUAUCUC as the variant, how does the self-cleavage read?
Answer: 0.14

Question: Which self-cleavage does the source give for UAACAGGGGGCCACAGCAGAAGCGUUCACGUCGCAGGCCCUGUCAGAUUCUGGUGAAUCUGCGAAUUCAGCUGUAUAUCUC here?
Answer: 0.19

Question: For UAACAGGGGGCCACAGCAGAAGCGUUCACGUCGCAGGCCCUGUCAGAUUCUGGUGAAUCUGCGAAUUCCGCUGUAUAUCUC, which self-cleavage is on record?
Answer: 0.23

Question: For UAACAGGGGGCCACAGCAGAAGCGUUCACGUCGCAGGCCCUGUCAGACUCUGGUGAAUCUGCGAAUUCUGCUGUAUAUCUC, which self-cleavage is on record?
Answer: 0.45

Question: With UAACAGGGGGCCACAGCAGAAGCGUUCACGUCGCAGACCCUGUCAGAUUCUGGGGAAUCUGCGAAUUCUGCUGUAUAUCUC as the variant, how does the self-cleavage read?
Answer: 0.2

Question: For UAACAGGGGGCCACAGCAGAAGCGUUCACGUCGCAGGCCCUGUCAGAUUCUGGUGAGUCUGCGAAUUCUGCUGUAUAUCUC, which self-cleavage is on record?
Answer: 0.44

Question: Which self-cleavage does the source give for UAACAGGGGGCCACAGCAGAAGCGUUCACGUCGCAGGCCCUGUCAGAUUCUGGUGAAUCUGCGAAUUCUGCUGUAUUUCUC here?
Answer: 0.61

Question: With UAACAGGGGGCCACAGCAGAAGCGUUCACGUCGCAGACCCUGUCAGAUUCUGGUGAAUCUGCGGAUUCUGCUGUAUAUCUC as the variant, how does the self-cleavage read?
Answer: 0.25

Question: With UAACAGGGGGCCACAGCAGAAGCGUUCACGUCGCAGACCCUGUCAGAUUCUGGUGAAUCUGCGAAUUCUGCUGUAUGUCUC as the variant, how does the self-cleavage read?
Answer: 0.18

Question: For UAACAGGGGGCCACAGCAGAAGCGUUCACGUCGCAGACCCUGUCAGAUUCUGGUGAAUCUGCGAAUUCUGCUGUAUUUCUC, which self-cleavage is on record?
Answer: 0.28

Question: Which self-cleavage does the source give for UAACAGGGGGCCACAGCAGAAGCGUUCACGUCGCAGACCCUGUCAGAUUCUGGUGAAUCUGCGAAUUCUGCUGUACAUCUC here?
Answer: 0.35

Question: For UAACAGGGGGCCACAGCAGAAGCGUUCACGUCGCAGAACCUGUCAGAUUCUGGUGAAUCUGCGAAUUCUGCUGUAUAUCUC, which self-cleavage is on record?
Answer: 0.27

Question: Which self-cleavage does the source give for UAACAGGGGGCCACAGCAGAAGCGUUCACGUCGCAGACCCAGUCAGAUUCUGGUGAAUCUGCGAAUUCUGCUGUAUAUCUC here?
Answer: 0.19

Question: With UAACAGGGGGCCACAGCAGAAGCGUUCACGUCGCAGACCCCGUCAGAUUCUGGUGAAUCUGCGAAUUCUGCUGUAUAUCUC as the variant, how does the self-cleavage read?
Answer: 0.25

Question: With UAACAGGGGGCCACAGCAGAAGCGUUCACGUCGCAGACCCUGUCAGAUUCUGGUGAAUCUGCGAAUUCUGCUGCAUAUCUC as the variant, how does the self-cleavage read?
Answer: 0.17

Question: With UAACAGGGGGCCACAGCAGAAGCGUUCACGUCGCAGGCCCUGUCAGAUUCUGGUGAAUCUGCGAAUUCUGCUGUAUAUCUC as the variant, how does the self-cleavage read?
Answer: 0.8

Question: For UAACAGGGGGCCACAGCAGAAGCGUUCACGUCGCAGACCCUGUCAGAUUCUGGUGAAUCUGCGAAUUCUGCUGUAUAUCUC, which self-cleavage is on record?
Answer: 0.28

Question: For UAACAGGGGGCCACAGCAGAAGCGUUCACGUCGCAGGCCAUGUCAGAUUCUGGUGAAUCUGCGAAUUCUGCUGUAUAUCUC, which self-cleavage is on record?
Answer: 0.29

Question: With UAACAGGGGGCCACAGCAGAAGCGUUCACGUCGCAGACCCUGUCAGAUUCUGGUGAAUCUGCGAAUUCUGCCGUAUAUCUC as the variant, how does the self-cleavage read?
Answer: 0.33
